The text below walks through data of article doi:10.1101/2022.04.25.489454.

Broadly, the Kd is the equilibrium constant for the complex coming apart.

Experiment [1] has as its target stabilized microtubules polymerised from cow brain tubulin (cow (purified from cow brains)) (UniProt Q6B856). The experiment can be described thus: TIRF microscopy of GFP-protein decoration of immobilized microtubules.
Experiment [2] deals with full length human GFP-CLASP2α (human) (UniProt O75122). The experiment in a line: optical trap rupture force.
The target is the same in experiment [3]. The experiment in a line: TIRF microscopy of microtubules tethered to protein clusters on DNA origami.
For experiment [4], the target named is stabilized microtubules polymerised from cow brain tubulin (cow (purified from cow brains)) (UniProt Q6B856). The experiment in a line: TIRF microscopy of GFP-protein decoration of immobilized microtubules. This is another data set of the same source.

Read-outs that look alike come from different tables or passages of the source.

In experiment [1], “full length human GFP-CLASP2α (from UniProt O75122-3 1-1515) (natural protein)” came in with a Kd of 0.5 nM and an end brightness of 594 a.u.

In experiment [2], “stabilized microtubules polymerised from cow brain tubulin (from UniProt Q6B856 1-445) (complex)” gave a pulling force at 50% survival of the attachment of 14 pN and a pulling force withstood without rupture (13 of 39 microtubules) above 15.2 pN. Besides, the time for which half of the microtubules stay attached by their end in experiment [3] is 4 h.

B1: GFP-L-TOG2-S (domain or fragment)
chain: KVPAPKTSGNPANSARKPGSAGGPKVGAGASKEGGAGAVDEDDFIKAFTDVPSIQIYSSRELEETLNKIREILSDDKHDWDQRANALKKIRSLLVAGAAQYDCFFQHLRLLDGALKLSAKDLRSQVVREACITVAHLSTVLGNKFDHGAEAIVPTLFNLVPNSAKVMATSGCAAIRFIIRHTHVPRLIPLITSNCTSKSVPVRRRSFEFLDLLLQEWQTHSLERHAAVLVETIKKGIHDADAEARVEARKTYMGLRNHFPGEAETLYNSLEPSYQKSLQTYLKSSGSVASLPQSDRSSSSSQESLNRPFSSKWSTANPSTVAGRVSAGSSKASSLPGSLQRSRSDIDVNAAAGAKAHHAAGQSVRSGRLGAGALNAGSYASLEDTSDKLDGTASEDGRVRAKLSAPLAGMGNAKADSRGRSRTKMVSQSQPGSRSGSPGRVLTTTALSTVSSGVQRVLVNSASAQKRSKIPRSQGCSREASPSRLSVARSSRIPRPSVSQGCSREASRESSRDTSPVRSFQPLGPGYGISQSS
In turn, B1 showed an end brightness in experiment [4] of 757 a.u.
